Paper PMC12646661 (The Journal of Clinical Investigation, 2025)

Biological target: T1, rN2 (A/Hong Kong/1/1968), soluble recombinant neuraminidase (influenza A virus A/Hong Kong/1/1968 …)
T1 chain: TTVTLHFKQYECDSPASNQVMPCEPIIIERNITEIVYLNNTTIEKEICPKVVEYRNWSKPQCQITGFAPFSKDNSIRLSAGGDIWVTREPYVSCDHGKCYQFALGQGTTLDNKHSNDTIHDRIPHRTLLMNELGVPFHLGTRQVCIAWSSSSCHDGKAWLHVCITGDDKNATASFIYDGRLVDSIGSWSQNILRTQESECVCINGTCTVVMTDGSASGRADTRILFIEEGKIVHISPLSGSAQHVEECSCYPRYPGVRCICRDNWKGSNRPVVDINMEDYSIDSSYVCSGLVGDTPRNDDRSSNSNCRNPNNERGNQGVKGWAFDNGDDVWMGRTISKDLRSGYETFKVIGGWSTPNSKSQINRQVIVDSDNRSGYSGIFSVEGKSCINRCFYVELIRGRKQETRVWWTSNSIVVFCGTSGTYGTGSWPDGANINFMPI
Test: ELISA
Settings: both partners purified

B1: rFNI9 (recombinant version of the broadly neutralizing NA antibody FNI9) (antibody, V domains shown)
VH: QVHLVQSGAEVKEPGSSVTVSCKASGGSFNNQAISWVRQAPGQGLEWMGGIFPISGTPTSAQRFQGRVTFTADESTTTVYMDLSSLRSDDTAVYYCARAGSDYFNRDLGWENYYFASWGQGTLVTVSS
VL: EIVMTQSPATLSLSSGERATLSCRASRSVSSNLAWYQQKPGQAPRLLIYDASTRATGFSARFAGSGSGTEFTLTISSLQSEDSAIYYCQQYNNWPPWTFGQGTKVEIK
binding result: binds

B2: r1G01 (recombinant version of the previously described mAb 1G01) (antibody, V domains shown)
VH: EVQLVESGGRALRPGGSLRLSCAASGFKFDDYAMSWVRQVPGKGLEFVSGLNWNGDITAYTDSVKGRFTVSRDNAKNSLYLHINSPKPEDTALYYCARTSSWGDYTRGPEPKITWYFDLWGRGTLVTVSS
VL: DIQLTQSPSFLSASVGDRITITCRASQGIDGYLAWYQQRPGKAPNLLIYAASLLQSGVPSRFSGSGYGTEFTLTISSLQPEDFATYYCQHLDSYPLFTFGPGTKVDIK
binding result: binds
